Laboratory results reported in patent publication CN116693678A.

Legend:
[1] = biological target: 肺炎支原体天然抗原(购自Microbix) (Mycoplasma pneumoniae); assay: indirect ELISA on coated antigen (2 ug/ml), antibody 0.15 ng/ml
[2] = biological target: 肺炎支原体天然抗原(购自Microbix) (Mycoplasma pneumoniae); assay: indirect ELISA on coated antigen (2 ug/ml), antibody 0.46 ng/ml
[3] = biological target: 肺炎支原体天然抗原(购自Microbix) (Mycoplasma pneumoniae); assay: indirect ELISA on coated antigen (2 ug/ml), antibody 1.37 ng/ml
[4] = biological target: 肺炎支原体天然抗原(购自Microbix) (Mycoplasma pneumoniae); assay: indirect ELISA on coated antigen (2 ug/ml), antibody 4.12 ng/ml
[5] = biological target: 肺炎支原体天然抗原(购自Microbix) (Mycoplasma pneumoniae); assay: indirect ELISA on coated antigen (2 ug/ml), antibody 12.35 ng/ml
[6] = biological target: 肺炎支原体天然抗原(购自Microbix) (Mycoplasma pneumoniae); assay: indirect ELISA on coated antigen (2 ug/ml), antibody 0 ng/ml (blank well)

| Molecule | OD值 (450nm, 参考630nm) [1] | OD值 (450nm, 参考630nm) [2] | OD值 (450nm, 参考630nm) [3] | OD值 (450nm, 参考630nm) [4] | OD值 (450nm, 参考630nm) [5] | OD值 (450nm, 参考630nm) [6] |
| --- | --- | --- | --- | --- | --- | --- |
| 对照 (antibody) | 0.068 OD | 0.111 OD | 0.208 OD | 0.499 OD | 1.21 OD | 0.015 OD |
| Anti-MP-11F5mut6 (antibody, mouse IgG1, kappa, V domains shown) VH: QVQLQQSGPELVKPGALVKISCKASGYTFTSFDINWVKQRPGQGLEWIGYIYPGDGSTKYNEKFKGKATLTADKSSSTAYMQFSSLTSEDSAVYFCTRKGGWGAGHSAMDYWGQGTSVTVSS VL: DIQMTQTTSSLSASLGDRVTISCRASQAISNYINWYQQRPDGTVKLLIYYTSRKNSGAPSRFSGSGSGTDYSLTISNLDQEDIATYFCQQGYTTPYTFGGGTKLEIKR | 0.174 OD | 0.276 OD | 0.445 OD | 0.85 OD | 1.92 OD | 0.063 OD |
| Anti-MP-11F5mut5 (antibody, mouse IgG1, kappa, V domains shown) VH: QVQLQQSGPELVKPGALVKISCKASGYTFTSFDINWVKQRPGQGLEWIGYIYPGDGSTKYNEKFKGKATLTADKSSSTAYMQFSSLTSENSAVYFCTRKGGWGAGHSAMDYWGQGTSVTVSS VL: DIQMTQTTSSLSASLGDRVTISCRASQAISNYLNWYQQRPDGTVKLLIYYTSRKNSGAPSRFSGSGSGTDYSLTISNIDQEDIATYFCQQGYTTPYTFGGGTKLEIKR | 0.163 OD | 0.241 OD | 0.316 OD | 0.837 OD | 2.02 OD | 0.038 OD |
| Anti-MP-11F5mut4 (antibody, mouse IgG1, kappa, V domains shown) VH: QVQLQQSGPELVKPGALVKISCKASGYTFTSFDINWVKQRPGQGLEWIGYIYPGDGSTKYNEKFKGKATLTADKSSSTAYMQFSSLTSENSAVYFCTRKGGWGAGHSAMDYWGQGTSVTVSS VL: DIQMTQTTSSLSASLGDRVTISCRASQAISNYINWYQQRPDGTVKLLIYYTSRKNSGAPSRFSGSGSGTDYSLTISNLDQEDIATYFCQQGYTTPYTFGGGTKLEIKR | 0.374 OD | 0.49 OD | 1.26 OD | 1.92 OD | 1.96 OD | 0.042 OD |

Other lines, results leading:

| OD值 (450nm, 参考630nm) [1] | OD值 (450nm, 参考630nm) [2] | OD值 (450nm, 参考630nm) [3] | OD值 (450nm, 参考630nm) [4] | OD值 (450nm, 参考630nm) [5] | OD值 (450nm, 参考630nm) [6] | Molecule |
| --- | --- | --- | --- | --- | --- | --- |
| 0.156 OD | 0.201 OD | 0.295 OD | 0.815 OD | 1.89 OD | 0.038 OD | Anti-MP-11F5mut1 (antibody, mouse IgG1, kappa, V domains shown) VH: QVQLQQSGPELVKPGALVKISCKASGYTFTSFDINWVKQRPGQGLEWIGYIYPGDGSTKYNEKFKGKATLTADKSSSTAYMQFSSLTSENSAVYFCTRKGGWGAGHSAMDYWGQGTSVTVSS VL: DIQMTQTTSSLSASLGDRVTISCRASQAIGNYLNWYQQRPDGTVKLLIYYTSRKNSGAPSRFSGSGSGTDYSITISNLDQEDIATYFCQQGYTTPYTFGGGTKLEIKR |
| 0.365 OD | 0.4 OD | 0.643 OD | 1.51 OD | 1.91 OD | 0.032 OD | Anti-MP-11F5mut7 (antibody, mouse IgG1, kappa, V domains shown) VH: QVQLQQSGPELVKPGALVKISCKASGYTFTSFDINWVKQRPGQGLEWIGYIYPGDGSTKYNEKFKGKATLTADKSSSTAYMQFSSLTSENSAVYFCTRKGGWGAGHSAMDYWGQGTSVTVSS VL: DIQMTQTTSSLSASLGDRVTISCRASQAISNYINWYQQRPDGTVKLLIYYTSRKNSGAPSRFSGSGSGTDYSLTISNIDQEDIATYFCQQGYTTPYTFGGGTKLEIKR |
| 0.489 OD | 0.56 OD | 1.27 OD | 1.64 OD | 1.93 OD | 0.034 OD | Anti-MP-11F5mut8 (antibody, mouse IgG1, kappa, V domains shown) VH: QVQLQQSGPELVKPGALVKISCKASGYTFTSFDINWVKQRPGQGLEWIGYIYPGDGSTKYNEKFKGKATLTADKSSSTAYMQFSSLTSEDSAVYFCTRKGGWGAGHSAMDYWGQGTSVTVSS VL: DIQMTQTTSSLSASLGDRVTISCRASQAISNYINWYQQRPDGTVKLLIYYTSRKNSGAPSRFSGSGSGTDYSLTISNIDQEDIATYFCQQGYTTPYTFGGGTKLEIKR |
